Test results taken from US20260250396A1 (TRUEBINDING, published 2026).

Target: T1, human Galectin-3 (human, UniProt P17931 1-250, limits assumed)
T1 construct: also called Gal-3; Gal3
Experiment: in vitro affinity; method and format not stated

T1 sequence (P17931 whole entry): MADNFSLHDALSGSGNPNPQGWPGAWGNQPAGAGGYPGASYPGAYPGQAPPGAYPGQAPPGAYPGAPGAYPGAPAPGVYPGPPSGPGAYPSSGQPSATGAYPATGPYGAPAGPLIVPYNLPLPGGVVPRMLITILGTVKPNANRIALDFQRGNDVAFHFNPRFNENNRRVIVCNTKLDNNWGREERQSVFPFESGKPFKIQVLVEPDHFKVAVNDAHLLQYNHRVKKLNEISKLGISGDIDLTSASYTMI

B1: TB006 (antibody, human IgG4 S228P, kappa, V domains shown)
VH: QVQLVQSGAEVKKPGASVKVSCKASGYSFTNYYMHWVRQAPGQRLEWMGWIYPGSGNTNYNEKFQGRVTITADTSASTAYMELSSLRSEDTAVYYCSTAPGGFDVWGQGTTVTVSS
VL: DIVMTQTPLSLSVTPGQPASISCKSSKSLLHSDGITYLYWYLQKPGQSPQLLIYRMSNLASGVPDRFSGSGSGTDFTLKISRVEAEDVGVYYCAQMLEFPLTFGQGTKLEIKR
notes: also called anti-Gal3 antibody; humanized IgG4 (S228P) type monoclonal antibody
B1 showed a Kd of 8.4 nM.
